molecular target: T1, human IL-21 receptor (IL-21R) on cells (human, UniProt Q9HBE5 20-538; P31785 23-369); experiment: cell-based or functional assay
T1 sequence (Q9HBE5 20-538, chain 1 of 2): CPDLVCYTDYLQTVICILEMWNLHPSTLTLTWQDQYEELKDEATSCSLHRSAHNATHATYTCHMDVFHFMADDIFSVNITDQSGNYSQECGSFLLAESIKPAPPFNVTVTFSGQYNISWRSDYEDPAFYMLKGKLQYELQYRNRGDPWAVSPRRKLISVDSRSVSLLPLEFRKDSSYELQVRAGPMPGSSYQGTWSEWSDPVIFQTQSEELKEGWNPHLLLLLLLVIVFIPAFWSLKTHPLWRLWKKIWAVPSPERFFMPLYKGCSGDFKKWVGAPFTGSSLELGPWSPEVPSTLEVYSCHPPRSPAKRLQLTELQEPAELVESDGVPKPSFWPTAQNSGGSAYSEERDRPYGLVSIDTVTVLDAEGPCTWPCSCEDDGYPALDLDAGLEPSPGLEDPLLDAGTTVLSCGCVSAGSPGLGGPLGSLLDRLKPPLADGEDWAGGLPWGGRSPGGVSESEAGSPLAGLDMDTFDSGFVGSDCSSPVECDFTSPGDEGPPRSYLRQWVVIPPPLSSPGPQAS
T1 sequence (P31785 23-369, chain 2 of 2): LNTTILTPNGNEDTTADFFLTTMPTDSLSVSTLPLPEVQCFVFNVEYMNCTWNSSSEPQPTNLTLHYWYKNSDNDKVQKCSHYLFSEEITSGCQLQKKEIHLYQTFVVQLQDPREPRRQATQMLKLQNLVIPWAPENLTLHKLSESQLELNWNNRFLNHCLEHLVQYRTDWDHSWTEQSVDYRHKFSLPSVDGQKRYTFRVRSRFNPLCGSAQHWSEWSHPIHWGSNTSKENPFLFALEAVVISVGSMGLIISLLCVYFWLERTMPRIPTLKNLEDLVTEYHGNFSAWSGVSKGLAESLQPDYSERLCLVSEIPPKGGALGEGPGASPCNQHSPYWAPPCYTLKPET

| Binder | EC50B, pSTAT3+ Jurkat PD-1 cells, PD-1 blocked [nM] | EC50NB, pSTAT3+ Jurkat PD-1 cells [nM] |
| --- | --- | --- |
| DHJ369 (bispecific antibody, human IgG1, kappa, lambda, L234A L235A) heavy 1: EVQLLESGGGLVQPGGSLRLSCAASGFTFSINAMTWVRQAPGKGLEWVSTISGSGFSTYYADSLKGRFTISRDNSKNTLYLQMNSLRAEDTAVYYCAKEVYGDYWGQGTLVTVSSASTKGPSVFPLAPSSKSTSGGTAALGCLVKDYFPEPVTVSWNSGALTSGVHTFPAVLQSSGLYSLSSVVTVPSSSLGTQTYICNVNHKPSNTKVDKRVEPKSCDKTHTCPPCPAPEAAGGPSVFLFPPKPKDTLMISRTPEVTCVVVDVSHEDPEVKFNWYVDGVEVHNAKTKPREEQYNSTYRVVSVLTVLHQDWLNGKEYKCKVSNKALAAPIEKTISKAKGQPREPQVCTLPPSREEMTKNQVSLSCAVKGFYPSDIAVEWESNGQPENNYKTTPPVLDSDGSFFLVSKLTVDKSRWQQGNVFSCSVMHEALHNHYTQKSLSLSPGK light 1: not shown heavy 2: not shown light 2: DIQMTQSPSSVSASVGDRVTITCRASQGISSWLAWYQHKPGKAPKLLIYVASSLQSGVPSRFSGSGSGTDFTLTISSLQPEDFATYYCQQANSFPLTFGGGTKVEIKRTVAAPSVFIFPPSDEQLKSGTASVVCLLNNFYPREAKVQWKVDNALQSGNSQESVTEQDSKDSTYSLSSTLTLSKADYEKHKVYACEVTHQGLSSPVTKSFNRGEC | 2.56 | 0.24 |
| IFM656 (bispecific antibody, human IgG1, kappa, lambda, L234A L235A) heavy 1: EVQLLESGGGLVQPGGSLRLSCAASGFTFSINAMTWVRQAPGKGLEWVSTISGSGFSTYYADSLKGRFTISRDNSKNTLYLQMNSLRAEDTAVYYCAKEVYGDYWGQGTLVTVSSASTKGPSVFPLAPSSKSTSGGTAALGCLVKDYFPEPVTVSWNSGALTSGVHTFPAVLQSSGLYSLSSVVTVPSSSLGTQTYICNVNHKPSNTKVDKRVEPKSCDKTHTCPPCPAPEAAGGPSVFLFPPKPKDTLMISRTPEVTCVVVDVSHEDPEVKFNWYVDGVEVHNAKTKPREEQYNSTYRVVSVLTVLHQDWLNGKEYKCKVSNKALAAPIEKTISKAKGQPREPQVCTLPPSREEMTKNQVSLSCAVKGFYPSDIAVEWESNGQPENNYKTTPPVLDSDGSFFLVSKLTVDKSRWQQGNVFSCSVMHEALHNHYTQKSLSLSPGK light 1: not shown heavy 2: not shown light 2: DIQLTQSPSSVSASVGDRVTITCRASQGISSWLAWYQHKPGKAPKLLIYVASSLQSGVPSRFSGSGSGTDFTLTISSLQPEDFATYYCQQASSFPLTFGGGTKVEIKRTVAAPSVFIFPPSDEQLKSGTASVVCLLNNFYPREAKVQWKVDNALQSGNSQESVTEQDSKDSTYSLSSTLTLSKADYEKHKVYACEVTHQGLSSPVTKSFNRGEC | 15.9 | 0.21 |
| JKJ112 (bispecific antibody, human IgG1, kappa, lambda, L234A L235A) heavy 1: EVQLLESGGGLVQPGGSLRLSCAASGFTFSINAMTWVRQAPGKGLEWVSTISGSGFSTYYADSLKGRFTISRDNSKNTLYLQMNSLRAEDTAVYYCAKEVYGDYWGQGTLVTVSSASTKGPSVFPLAPSSKSTSGGTAALGCLVKDYFPEPVTVSWNSGALTSGVHTFPAVLQSSGLYSLSSVVTVPSSSLGTQTYICNVNHKPSNTKVDKRVEPKSCDKTHTCPPCPAPEAAGGPSVFLFPPKPKDTLMISRTPEVTCVVVDVSHEDPEVKFNWYVDGVEVHNAKTKPREEQYNSTYRVVSVLTVLHQDWLNGKEYKCKVSNKALAAPIEKTISKAKGQPREPQVCTLPPSREEMTKNQVSLSCAVKGFYPSDIAVEWESNGQPENNYKTTPPVLDSDGSFFLVSKLTVDKSRWQQGNVFSCSVMHEALHNHYTQKSLSLSPGK light 1: not shown heavy 2: not shown light 2: DIQMTQSPSSVSASVGDRVTITCRASQGISSWLAWYQHKPGKAPKLLIYVASSLQSGVPSRFSGSGSGTDFTLTISSLQPEDFATYYCQQANSFPLTFGGGTKVEIKRTVAAPSVFIFPPSDEQLKSGTASVVCLLNNFYPREAKVQWKVDNALQSGNSQESVTEQDSKDSTYSLSSTLTLSKADYEKHKVYACEVTHQGLSSPVTKSFNRGEC | 17.2 | 0.52 |
| SUR250 (bispecific antibody, human IgG1, kappa, lambda, L234A L235A) heavy 1: EVQLLESGGGLVQPGGSLRLSCAASGFTFSINAMTWVRQAPGKGLEWVSTISGSGFSTYYADSLKGRFTISRDNSKNTLYLQMNSLRAEDTAVYYCAKEVYGDYWGQGTLVTVSSASTKGPSVFPLAPSSKSTSGGTAALGCLVKDYFPEPVTVSWNSGALTSGVHTFPAVLQSSGLYSLSSVVTVPSSSLGTQTYICNVNHKPSNTKVDKRVEPKSCDKTHTCPPCPAPEAAGGPSVFLFPPKPKDTLMISRTPEVTCVVVDVSHEDPEVKFNWYVDGVEVHNAKTKPREEQYNSTYRVVSVLTVLHQDWLNGKEYKCKVSNKALAAPIEKTISKAKGQPREPQVCTLPPSREEMTKNQVSLSCAVKGFYPSDIAVEWESNGQPENNYKTTPPVLDSDGSFFLVSKLTVDKSRWQQGNVFSCSVMHEALHNHYTQKSLSLSPGK light 1: not shown heavy 2: not shown light 2: DIQLTQSPSSVSASVGDRVTITCRASQGISSWLAWYQHKPGKAPKLLIYVASSLQSGVPSRFSGSGSGTDFTLTISSLQPEDFATYYCQQASSFPLTFGGGTKVEIKRTVAAPSVFIFPPSDEQLKSGTASVVCLLNNFYPREAKVQWKVDNALQSGNSQESVTEQDSKDSTYSLSSTLTLSKADYEKHKVYACEVTHQGLSSPVTKSFNRGEC | 5.36 | 0.08 |

molecular target: T1, human IL-21 receptor (IL-21R) on cells; experiment: cell-based or functional assay; remark: another data set of the same source

| Binder | EC50B, pSTAT3+ Jurkat PD-1 cells, PD-1 blocked [nM] | EC50NB, pSTAT3+ Jurkat PD-1 cells [nM] |
| --- | --- | --- |
| BBU753 (bispecific antibody, human IgG1, kappa, lambda, L234A L235A) heavy 1: EVQLLESGGGLVQPGGSLRLSCAASGFTFSINAMTWVRQAPGKGLEWVSTISGSGFSTYYADSLKGRFTISRDNSKNTLYLQMNSLRAEDTAVYYCAKEVYGDYWGQGTLVTVSSASTKGPSVFPLAPSSKSTSGGTAALGCLVKDYFPEPVTVSWNSGALTSGVHTFPAVLQSSGLYSLSSVVTVPSSSLGTQTYICNVNHKPSNTKVDKRVEPKSCDKTHTCPPCPAPEAAGGPSVFLFPPKPKDTLMISRTPEVTCVVVDVSHEDPEVKFNWYVDGVEVHNAKTKPREEQYNSTYRVVSVLTVLHQDWLNGKEYKCKVSNKALAAPIEKTISKAKGQPREPQVCTLPPSREEMTKNQVSLSCAVKGFYPSDIAVEWESNGQPENNYKTTPPVLDSDGSFFLVSKLTVDKSRWQQGNVFSCSVMHEALHNHYTQKSLSLSPGK light 1: not shown heavy 2: QVQLQESGPGLVKPSETLSLTCTVSGGSISSDFWGWIRQPPGKGLEWIGYISSRGSTNYNPSLKRRVTISVDTSRNQFSLKLSSVTAADTAVYYCARSAGVADFDFWGQGTLVTVSSASTKGPSVFPLAPSSKSTSGGTAALGCLVKDYFPEPVTVSWNSGALTSGVHTFPAVLQSSGLYSLSSVVTVPSSSLGTQTYICNVNHKPSNTKVDKRVEPKSCDKTHTCPPCPAPEAAGGPSVFLFPPKPKDTLMISRTPEVTCVVVDVSHEDPEVKFNWYVDGVEVHNAKTKPREEQYNSTYRVVSVLTVLHQDWLNGKEYKCKVSNKALAAPIEKTISKAKGQPREPQVYTLPPCREEMTKNQVSLWCLVKGFYPSDIAVEWESNGQPENNYKTTPPVLDSDGSFFLYSKLTVDKSRWQQGNVFSCSVMHEALHNHYTQKSLSLSPGK light 2: not shown | 0.312 | 0.015 |
| EDV817 (bispecific antibody, human IgG1, kappa, lambda, L234A L235A) heavy 1: EVQLLESGGGLVQPGGSLRLSCAASGFTFSINAMTWVRQAPGKGLEWVSTISGSGFSTYYADSLKGRFTISRDNSKNTLYLQMNSLRAEDTAVYYCAKEVYGDYWGQGTLVTVSSASTKGPSVFPLAPSSKSTSGGTAALGCLVKDYFPEPVTVSWNSGALTSGVHTFPAVLQSSGLYSLSSVVTVPSSSLGTQTYICNVNHKPSNTKVDKRVEPKSCDKTHTCPPCPAPEAAGGPSVFLFPPKPKDTLMISRTPEVTCVVVDVSHEDPEVKFNWYVDGVEVHNAKTKPREEQYNSTYRVVSVLTVLHQDWLNGKEYKCKVSNKALAAPIEKTISKAKGQPREPQVCTLPPSREEMTKNQVSLSCAVKGFYPSDIAVEWESNGQPENNYKTTPPVLDSDGSFFLVSKLTVDKSRWQQGNVFSCSVMHEALHNHYTQKSLSLSPGK light 1: not shown heavy 2: QVQLQESGPGLVKPSETLSLTCTVSGGSISSDYWGWIRQPPGKGLEWIGYISYRGSTNYNPSLKSRVTISVDTSRNQFSLKLSSVTAADTAVYYCARSAGVTDFDAWGQGTLVTVSSASTKGPSVFPLAPSSKSTSGGTAALGCLVKDYFPEPVTVSWNSGALTSGVHTFPAVLQSSGLYSLSSVVTVPSSSLGTQTYICNVNHKPSNTKVDKRVEPKSCDKTHTCPPCPAPEAAGGPSVFLFPPKPKDTLMISRTPEVTCVVVDVSHEDPEVKFNWYVDGVEVHNAKTKPREEQYNSTYRVVSVLTVLHQDWLNGKEYKCKVSNKALAAPIEKTISKAKGQPREPQVYTLPPCREEMTKNQVSLWCLVKGFYPSDIAVEWESNGQPENNYKTTPPVLDSDGSFFLYSKLTVDKSRWQQGNVFSCSVMHEALHNHYTQKSLSLSPGK light 2: not shown | 0.13 | 0.0969 |
| ECW089 (bispecific antibody, human IgG1, kappa, lambda, L234A L235A) heavy 1: EVQLLESGGGLVQPGGSLRLSCAASGFTFSINAMTWVRQAPGKGLEWVSTISGSGFSTYYADSLKGRFTISRDNSKNTLYLQMNSLRAEDTAVYYCAKEVYGDYWGQGTLVTVSSASTKGPSVFPLAPSSKSTSGGTAALGCLVKDYFPEPVTVSWNSGALTSGVHTFPAVLQSSGLYSLSSVVTVPSSSLGTQTYICNVNHKPSNTKVDKRVEPKSCDKTHTCPPCPAPEAAGGPSVFLFPPKPKDTLMISRTPEVTCVVVDVSHEDPEVKFNWYVDGVEVHNAKTKPREEQYNSTYRVVSVLTVLHQDWLNGKEYKCKVSNKALAAPIEKTISKAKGQPREPQVCTLPPSREEMTKNQVSLSCAVKGFYPSDIAVEWESNGQPENNYKTTPPVLDSDGSFFLVSKLTVDKSRWQQGNVFSCSVMHEALHNHYTQKSLSLSPGK light 1: not shown heavy 2: QVQLQESGPGLVKPSETLSLTCTVSGGSISSDYWGWIRQPPGKGLEWIGYISYRGSTNYNPSLKSRVTISVDTSRNQFSLKLSSVTAADTAVYYCARSAGVTDFDAWGQGTLVTVSSASTKGPSVFPLAPSSKSTSGGTAALGCLVKDYFPEPVTVSWNSGALTSGVHTFPAVLQSSGLYSLSSVVTVPSSSLGTQTYICNVNHKPSNTKVDKRVEPKSCDKTHTCPPCPAPEAAGGPSVFLFPPKPKDTLMISRTPEVTCVVVDVSHEDPEVKFNWYVDGVEVHNAKTKPREEQYNSTYRVVSVLTVLHQDWLNGKEYKCKVSNKALAAPIEKTISKAKGQPREPQVYTLPPCREEMTKNQVSLWCLVKGFYPSDIAVEWESNGQPENNYKTTPPVLDSDGSFFLYSKLTVDKSRWQQGNVFSCSVMHEALHNHYTQKSLSLSPGK light 2: not shown | 0.13 | 0.0963 |
